Target: Soluble human cMet extracellular domain (ECD) protein (human) (UniProt P08581)
Experiment: SPR, captured via anti-human kappa, soluble ECD injected

Chain of Soluble human cMet extracellular domain (ECD) protein (human) (P08581 25-932): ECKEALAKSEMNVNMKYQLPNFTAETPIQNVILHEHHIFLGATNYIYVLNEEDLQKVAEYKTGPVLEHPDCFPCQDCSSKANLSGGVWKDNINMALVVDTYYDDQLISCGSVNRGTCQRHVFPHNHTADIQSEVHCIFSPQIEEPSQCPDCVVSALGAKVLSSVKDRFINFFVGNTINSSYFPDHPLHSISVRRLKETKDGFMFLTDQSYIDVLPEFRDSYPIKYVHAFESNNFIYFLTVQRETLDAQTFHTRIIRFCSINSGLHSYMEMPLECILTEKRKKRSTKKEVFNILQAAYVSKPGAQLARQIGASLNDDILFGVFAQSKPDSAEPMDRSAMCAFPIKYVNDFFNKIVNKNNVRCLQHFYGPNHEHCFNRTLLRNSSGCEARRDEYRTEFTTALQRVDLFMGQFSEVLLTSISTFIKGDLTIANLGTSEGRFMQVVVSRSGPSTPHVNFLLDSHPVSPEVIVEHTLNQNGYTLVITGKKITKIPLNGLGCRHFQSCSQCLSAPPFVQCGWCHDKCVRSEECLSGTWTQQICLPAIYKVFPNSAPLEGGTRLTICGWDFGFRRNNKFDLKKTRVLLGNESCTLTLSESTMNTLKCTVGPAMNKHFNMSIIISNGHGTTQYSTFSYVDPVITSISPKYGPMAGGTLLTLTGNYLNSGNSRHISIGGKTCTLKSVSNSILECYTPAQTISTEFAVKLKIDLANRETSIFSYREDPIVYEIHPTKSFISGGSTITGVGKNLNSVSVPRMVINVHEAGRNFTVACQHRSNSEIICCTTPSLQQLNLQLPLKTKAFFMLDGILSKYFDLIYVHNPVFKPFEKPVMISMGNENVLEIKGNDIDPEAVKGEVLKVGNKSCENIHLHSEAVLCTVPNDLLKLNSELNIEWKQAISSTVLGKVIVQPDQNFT

- Kd: 1.3 nM
- koff: 0.0001 s⁻¹
- kon: 75000 M⁻¹ s⁻¹
B1: MetMAb (antibody, INN chains, looked up, V domains shown)
VH: EVQLVESGGGLVQPGGSLRLSCAASGYTFTSYWLHWVRQAPGKGLEWVGMIDPSNSDTRFNPNFKDRFTISADTSKNTAYLQMNSLRAEDTAVYYCATYRSYVTPLDYWGQGTLVTVSS
VL: DIQMTQSPSSLSASVGDRVTITCKSSQSLLYTSSQKNYLAWYQQKPGKAPKLLIYWASTRESGVPSRFSGSGSGTDFTLTISSLQPEDFATYYCQQYYAYPWTFGQGTKVEIKR
